Results: US20140242093A1, “METHODS AND COMPOSITIONS FOR MODULATING THE INNATE IMMUNE RESPONSE AND/OR MYOGENESIS IN A MAMMALIAN SUBJECT” (FRED HUTCHINSON CANCER RESEARCH CENTER, priority 2011, published 2014)
“Also recorded” adds a separate entry of the source.

Tests used:
[1] = tested on: 31-bp oligonucleotides containing the putative DUX4 binding site; assay: Electromobility shift assay (EMSA); design: species or system human; conditions: in vitro translated protein; TRIM48, CSF1R, THE1D oligos
Protocol: EMSA was performed with ^32P-labeled 31-bp oligonucleotides from endogenous genomic sequences containing the putative DUX4 binding site as probes (sequences below; only forward shown). Radiolabeled probes were incubated with in vitro translated protein generated from pCS2-DUX4-fl or pCS2-DUX4-s^2 vectors using the TNT SP6 Coupled Wheat Germ Extract System (Promega) according to manufacturer's instructions. To obtain supershift of protein-DNA complexes, 0.1 μg of E14-3 anti-DUX4 rabbit monoclonal antibody was added to the mixtures. For competition experiments, excess unlabeled probes of either wild-type or mutant sequences were included in the binding reaction. The gels were prepared and run as previously described (Knoepfler et al., 1999).

FSHD cultured myoblasts = assay: Dominant negative inhibition of DUX4-fl by lenti-DUX4-s in FSHD muscle cells; format: cell-based, human; conditions: lentiviral expression in FSHD muscle cells, 48 hours of differentiation
Protocol: Simultaneously, cells were transduced by lentivirus carrying DUX4-s or GFP along with 8 μg/mL polybrene. Cells were washed and changed to plain differentiation media after 24 hours. Cells were harvested for RNA after 48 hours of differentiation. Untransduced cells were used to assess baseline expression of DUX4-fl target genes.

[2] = tested on: Cultured control human myoblasts; assay: Beta-defensin 3 and innate immune response, real-time qPCR of IFIH1, ISG20, DEFB103; format: cell-based; conditions: RT-qPCR, similar titers, FIG. 7A
Protocol: Cultured control human myoblasts were grown to 80% confluence and infected with equivalent titers of lenti-GFP, lenti-DUX4-s and lenti-DUX4-fl in growth media supplemented with 8 μg/mL polybrene. Expression of innate immune responsive genes including IFIH1 (MDA5), ISG20 and DEFB103 were assessed by real-time qPCR as previously described at 24 hours (primer sequences below). For conditioned media, cells were infected with lenti-DUX4-fl for 12 hours, thoroughly washed 3 times with PBS and switched to fresh growth media to condition for 12 hours. Control conditioned media was produced from cells not infected with any lentivirus. Myoblasts were infected with lenti-GFP in either control conditioned media, lenti-DUX4-fl conditioned media or regular growth media supplemented with 1 μM human β-defensin 3 (Peptides International, Louisville, Ky.). Expression of innate immune responsive genes were examined after 24 hours.

B1: DUX4-s: short splice form of DUX4 (SEQ ID NO:112), keeps the double-homeobox domains, lacks the C-terminal activation domain (protein, listed as Homo sapiens)
chain: MALPTPSDSTLPAEARGRGRRRRLVWTPSQSEALRACFERNPYPGIATRERLAQAIGIPEPRVQIWFQNERSRQLRQHRRESRPWPGRRGPPEGRRKRTAVTGSQTALLLRAFEKDRFPGIAAREELARETGLPESRIQIWFQNRRARHPGQGGRAPAQV
- binding to DUX4 core motifs [1]: specifically binds the same core binding site as DUX4-fl
- endogenous expression of DUX4 target genes (PRAMEF1, RFPL2, MBD3L2) (FSHD cultured myoblasts): inhibited the endogenous expression of the target genes; also recorded: blocks expression of these three DUX4-fl target genes
- induction of the innate immune response in myoblasts [2]: induced the innate immune response
